# According to the domain aggregation screens of Martell et al. (2025):
# Assay: soluble fraction after stress (log2 fold change); higher = more stays soluble; pooled small domains, quantitative proteomics
# Settings: stress: 75 degC
# 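Note: 20 min heating vs room temperature control held 20 min.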
row,Sequence,soluble fraction (log2)
1,HMQYIINFEYSGMLLREYLRGVLGLSHGTLTALKKDPLGILLNGEHATVRAVLHAGDRLTLALE,-3.51
2,HMQYKVMDVTVDGNPVIEFQNLNSKIKWIENNPDAIIQNIKTSSFEADQKRIVGTSRGPFWIVIKPDF,-0.424
3,HMQYRQRRGLERMELILDAATRVVAEVGYERTTTNAIATRAGISPGSLYQYFSSKEDIASALWERYAE,-0.0812
4,HMRAGEAVTGQVIGVKEDEIILSIAGSKSEGIITRSEFTNEPNVDLTTKVSVGDELEVKVLKVNDGEGMAS,-0.317
5,HMRAKPLILLDGREISAEELFSLDKNSIKSIEVLKDETALAQYGEKAKNGVVLVVTKSAAAS,0.00789
6,HMRALPAGQADLLKWIDGVTPRSVEELELLSGLEPGRLSELLMELELAGIVRAVAGDSYIKISKS,-0.649
7,HMRAPETEITYTEFKTALRAGQIETATVGIEQISGKLTDGDLYRTVRVDDPDLLKDLEANHVNAAGRV,0.0537
8,HMRASQGRNELILSLLRGHELSILELLEGLEKQGVRVARPTLTKDLNELVSRGSVEATAPPRSKNRTYRIP,-0.986
9,HMRDFLMDSTKNKLSKDQVQLSRIFLWFGNDFGSKAERLEFISRYSGMDFNQPKIDYLTYDWSLNQ,0.286
10,HMRDLITYVVQINGKLRGKLEVAPDTDPEELKALALEVENVKRSLEGWVVKKVIVVPGKMVSIAAG,-1.77
11,HMRDLLPHFQRELQFLQTHRNEFAAAYPELGGRLATASDLLDDPHVERMVQSFALLAARVHKRLDDDF,0.121
12,HMRDLTARQQQILALIRQHIADTGFPPTRAEIAAQLGFRSPNAAEEHLKALARKGVIELASGASRGIRLK,-0.86
13,HMRDPFDALSARERAVASLVQRGLRNKEVASELGLTEGTVKVHLHKVFDKLGIRGRTELILLAQER,-1.35
14,HMRDQAIDIYKTVHSVAEPYKEVFLLRVLGELSFKEISHIFGKSESWAKVTFFRAKIKVVEKREES,-3.97
15,HMRDQQHNIYLLEKAKRLYEEFLGDNRHIIAAEMARFEAVLETQDAIIIQRAQQQFSEFLNRFDG,-2.12
16,HMRDRYEYLKELRLYLSPLGRTEEDRVIEYYAELIGDKIESGIPENGVLSQLGTPRELADKILAETQEY,-0.377
17,HMRDSLVGLEGVVVREVDDETLAGKVQIGSMEWSARSESGRIPAGRRVVVLRAEGVHIVVKEV,-0.407
18,HMRDSWNEATKEKRYTEAYDALNSALKKTPATPHALSDALWIARELGRTNEEVQRLEWRLYALLTWIS,0.241
19,HMRDTDAEVTYKLNEPFKTMGSVSVEGKVLEFAGSKWFARAAEFASNTEVYPLAKNRVRLTFTFHGLTAP,0.146
20,HMREEFIGVLDGKVAIFHGRPERKGPLKEVTAIEVDKLPRQEQADLEKGLVIRTDKEKLQLMEGLAALLD,0.683
21,HMREELIALYRAIARLSEDEQELLNLFYFARRPLSEIAQLTGMTPGAAKTRLYRARRHLRREMEEDGYG,-1.07
22,HMREGLRHLRVRMPGGAGETLAMLYREGEVLSQSSDGAFIEVEIRVAQSVAGRLLQMPGVQLTEEVG,-0.941
23,HMREGNELLGKEGVTVSELRPAGIALIDGRRTDVVTDGEFVAVDQAVEVVEVSGNRVVVRRS,0.305
24,HMREIDIWVAEDADSQRIDKYLSMVVEDLSRSRIASLIEGGSILVNGEVIRAKYKVKPADHITAAFEDEM,-1.27
25,HMREIKSNEILLEVENLKNSEFFNDINFNIKKGEIVGFSGLIGAGRTELALTLFGYYKAESGKVIQ,0.101
26,HMREIRIIAEEGHGRLDAFLAGREELGLSRSRIKGLIEEGQVTLNGAVPKAKQPVSPGDEIVVSVPD,0.192

row,Sequence,soluble fraction (log2)
1,HMREKMKGKILDYNFQESRGIISADDGNRYSFENSQWKGTQSPKVNQIVDFEIDGQNAKDIYLDK,0.0796
2,HMRESLSEAERHPRYLEGEDVVRMFLLMGDLSRVEAEVIALQWNAQEADRVGLPQDAKVFRTRAR,-0.523
3,HMREVDKRYYKINIAGTDRIFTNVYRVGDRYSAYEADKNGKPGKFLYSLSQAEIDRAVISGSFDFK,-0.225
4,HMREVSPEDLALMRRIDAWHLEHPFAGARLLRDLLRPEGFQAGRRHIGTLMARMGIEALYRK,-0.383
5,HMREYVGLSPFNKEKTPSFYVNDEKGQFFDFSSGKNGDLITFLQETERLTFMEAVERLAAEAGLPMPA,-0.742
6,HMRFANGHLIWDTIIELRNAERRINRRALADLTGLKPGVVDDHVERWIEKDQLRRAGNGELEVV,-1.36
7,HMRFMRVSQSKSKNSTSLYIIESVYTKDNKHTTRIVKKLGTVEELSKEHEDPLAWAKEVAKQMTEEAEQN,-0.569
8,HMRFNIGNVIEHYKLNTEDLAKVLFPTVKYPKQAFDRVLKGEANLDVIQLERLANHIGVLVTDLF,-1.18
9,HMRFQGKISDWNDEKGYGFVEPNGGGTRAFVHIKSFTDLPRRPINGDIIIYETTTDEKNRVQANNISFTR,-0.194
10,HMRFSYLNIETRKDISSLINKSEITHSSYNNNEYLYKIKSKKTDDFKDLISLIDEKDLISYSIDS,-1.14
11,HMRFTVSDKMDMLLKSLSAGQSMPFKSLFASASTKSEVIVTFLALLELMKLNQFVVWQDQILGEIEIERR,-0.751
12,HMRGDQLREHLLWTAKDVFLELGFERASMDAVAARAETSKRSLYAHFESKEKLFLAVIDLVRG,-3.54
13,HMRGESFSTLVSILQEMSARKAAQVLNGLSEGLAVEVLRALPSDVAGDILGRMDAAKAAALMEQLST,-0.46
14,HMRGGLATLTPRERQVLALMAEGRSNAGIAAELVVSGGAVEKHVASIFTKLGLPPDESDNRRVLAVLRHLG,-1.74
15,HMRGHASVEIKRIVYKYKLTDQELAKITGMKASDFPIYHDHLQLILPKRYWARVLDALQNYEKEHES,-4.04
16,HMRGINDLSLVDPQGRIRKDGEQYVVAFGRHKGKEISQIISQDPSYLNWLLSPKGIEDDATRELIRTQYS,-0.206
17,HMRGPTIELLIQKSALYEELDDSENALKEILKAFDRDSLNSDVLNRLVNLLLNDKQIDRAENYNQLLIEK,-0.17
18,HMRGPVRLDLPVSGLSRSSGPALAKILQAVPGVHKAHVNVRSGKATLEYDPARAKVTDFVEVIRSAGFGT,-0.272
19,HMRGQGRILAMLKIQPEIATKDLAYLLGIRQQSLNELLKKLEKNSYVERRPSEKDRRVMVVHLTEKGKE,-0.782
20,HMRGQLADLWLPREQARRAAEIVAARPVPLGSVKTWIARGKLAPRKTGTGPALYRVGALVSLLAKS,-2.14
21,HMRGVNEISYTTLISEVSGGNVRDVVISGDEITGTFNDGSRFHSFSPDDPQFIERLNDQGVIINVKPL,0.168
22,HMRHDSEGYYRLIGVPPDADDAELKEAAKKRLMEAHPDHGGSEDEFVEVYRAYRTLTDPSARAEYDARP,0.28
23,HMRHEDLSPAQKAAALVVAVGSENAAQVLRHLSEEEVEILAGEVARLGEVDPDVVDSVMREVYEQMMGH,-0.642
24,HMRHKSNRRLTAAHQIEQQIQKLLMENTMEAKELKESLNFAAKDIDTVLSWLVDKDKVRINAINQYYWT,-0.434
25,HMRHRITEKDKQFRIGQQVWHSEYGKGMVLSVDGIGSSARLTVSFVSGKLAKIIGTFVSTEP,-3.47
26,HMRIETLESLANRLAYKAYRTGRKVELEPMNPFERRVIHTALQNSKYATTESEGEDMNRHIVIVPKEGG,-0.152

row,Sequence,soluble fraction (log2)
1,HMRILGIDPGSVVTGYGVIDKSGNYLRHVLHGEIKPHKGYLLSEVLMDIFSKLSAVIVETNPQSV,0.271
2,HMRINIVKSKNAEQLYIIHSYRINGKNTSKIYKKLGTMADLLPLHNHDRDQVLAWAKEQARLATEQYDQEN,-2.79
3,HMRIQLNFSDQLLDDVMSEALKHIDRKSQEHHIEKQMDDEFMLVYIDARLIIQVIVNIINNAIKY,0.168
4,HMRITEGEIVEIQEGDNRALVGVGEKLEGIISLDEIRGADGKLLFNVGDKITVMVMGHYNERPK,0.244
5,HMRITRREQQVLHLLAMGMTTREIAGHINLTERTVRNRISNLRDKLGAQTASQLLAKAVAQGLIEP,-2.69
6,HMRIVSGRESMLGRTVVVADWAGERGHVVVDGERWNAVASTPLAAGRRARIVGIDGLTLSVSPDDKP,0.0293
7,HMRKAERHLLIKQVIDEFTIRTQEELLAKLSDYGVNATQATISRDIRDLKIVKAPDENGISRFVFF,-1.73
8,HMRKGDDRLRAQVDEYISKQGNNTFNYKQVAHAINATSPISQRAVALYLAELAFDGDLLETAPGRYKSPSR,-0.0636
9,HMRKIKDVLRLKLHAGLSHERVAASLNISKGVVAKYTSLAAAAGLDWPTVERLSEAALERRLV,-0.181
10,HMRKIKEVLRLKFETGFSHERIAAAVGVSKGAVTKYVQRAVAAGLGWPLAPERDDAALEALLFPH,0.842
11,HMRKLDQRLAGLLLGKGRLVKATHQQLADELGSVREMVSRLLKGFAEHDLVRMSREQIEIVDAAGLRKLAD,-2
12,HMRKPDLTSVRTLIRSVSKLARHLKISPNGIYRWISVNRIPGAHVVKVANYYDVEIRDLVHLTGSD,-1.49
13,HMRLADHVVEKLLALVQDRGLQPGQKLPAERQLAEELGVSRTSVREAIQKLTSQGVLSARRGDGTYLQS,0.0739
14,HMRLARPLTPTEERVLRLLASDMSNAKIGEVLGIRLPTVKSHVSHIMQKLGVTSRAKARTAAQQLGI,-1.21
15,HMRLDPENFYIRAVTYYRNGDWQRALSQLDEAIKLGTAIEYPALQARIYLEQGMRDEFIAASEK,-1.86
16,HMRLDVALRGVLLDGDPTQSRAFVLVSGTTSTYRLGETVQSAELVAINADTITLRTETGLHVIGFDGLI,-2.77
17,HMRLEYLVDVEEISIKEYLMLLGLSRRLARKIKLYGKMYINHQEAFNYHLVKKGDLLTIEFDE,-2.85
18,HMRLIDVFELSPKNRTVLQLYYYEGYSVTEISKILKISVNGVTSRLSRARSKLKLEMEAAENE,-0.577
19,HMRLMLITPTEFDEAAEIADNLKDRRAVLMNVEKTDNETARRLIDFLSGVVYALGGKIMRISAQAYVLT,0.00546
20,HMRLPNGYGGVTKLSGRRRKPYMVRKTIGWHIDEKTDKKVQDYVVIGYAATKSEALQMLADYNNNPFDV,-2.93
21,HMRLSVVDLQDSLRGLEYPAGKGDLINHAREHNASADVIAVLEQFSERTYRSAADVGEEFGRV,0.152
22,HMRLTIAQLSEKTGVPERTIRYYIDRGLVPSAHGERRGAWYDTVHLEPLLRIQQWREAGLSLEAIADLLR,-1.72
23,HMRMLLEERLDEIVKIVNERGSISNQELVKMFGASESTIRRDITTLANDNRVIRVHGGAMSVVS,-0.333
24,HMRMTLKNKVEDIVHILRKDKQTSLSAILGDNTDRIQTIVVFLAILELVKQHLIKTDQNANFGDINLFPED,-0.000181
25,HMRNLFWTEAQNAQNELNAMRINALTQSIRRIEPNFRGIPSLRDPNRPIPNEEVRDYENYLNRILP,0.0375
